Results on 1 molecule are retold here after paper PMC10667097 (2023).

For this assay, the target named is GST RBX1–CUL1–NEDD8 (human, UniProt Q13616 1-776; P62877 5-108; Q15843 1-76, NEDD8 linked to a specific site in the WHB subdomain | C-terminus linked to the cullin (isopeptide)). Description: BLI. On the technique in general: In BLI a coated tip is dipped into the sample, and binding shifts an interference pattern.
Sequence of GST RBX1–CUL1–NEDD8 (Q13616 whole entry, chain 1 of 3): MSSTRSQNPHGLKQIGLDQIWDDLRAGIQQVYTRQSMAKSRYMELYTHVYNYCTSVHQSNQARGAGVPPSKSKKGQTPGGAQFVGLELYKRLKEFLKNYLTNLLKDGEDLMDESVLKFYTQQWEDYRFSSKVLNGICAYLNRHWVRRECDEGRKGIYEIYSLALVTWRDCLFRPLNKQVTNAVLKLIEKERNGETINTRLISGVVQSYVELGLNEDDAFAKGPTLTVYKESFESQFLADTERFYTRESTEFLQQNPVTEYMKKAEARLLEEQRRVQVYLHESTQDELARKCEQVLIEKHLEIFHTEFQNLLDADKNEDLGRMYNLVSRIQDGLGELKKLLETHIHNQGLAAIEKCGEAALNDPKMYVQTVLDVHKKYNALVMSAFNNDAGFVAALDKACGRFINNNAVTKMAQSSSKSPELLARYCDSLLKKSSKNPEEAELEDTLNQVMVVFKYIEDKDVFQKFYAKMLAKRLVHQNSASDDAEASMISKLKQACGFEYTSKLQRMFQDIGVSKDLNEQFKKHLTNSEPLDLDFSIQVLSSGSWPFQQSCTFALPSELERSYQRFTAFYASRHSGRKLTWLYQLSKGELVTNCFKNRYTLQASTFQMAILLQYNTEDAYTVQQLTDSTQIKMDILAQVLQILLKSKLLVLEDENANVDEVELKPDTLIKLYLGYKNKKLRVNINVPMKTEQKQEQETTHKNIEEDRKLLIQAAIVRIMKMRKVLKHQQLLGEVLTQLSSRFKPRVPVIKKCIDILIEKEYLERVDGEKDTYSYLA
Sequence of GST RBX1–CUL1–NEDD8 (P62877 5-108, chain 2 of 3): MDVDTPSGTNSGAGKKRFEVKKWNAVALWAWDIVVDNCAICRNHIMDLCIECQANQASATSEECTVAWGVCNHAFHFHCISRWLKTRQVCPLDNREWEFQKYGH
Sequence of GST RBX1–CUL1–NEDD8 (Q15843 1-76, chain 3 of 3): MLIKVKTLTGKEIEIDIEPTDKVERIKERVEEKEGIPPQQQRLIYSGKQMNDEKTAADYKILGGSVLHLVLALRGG

B1: N8C_Fab3b (Fab, V domains shown)
VH: EVQLVESGGGLVQPGGSLRLSCAASGFNFSSSSIHWVRQAPGKGLEWVASISSSYGYTYYADSVKGRFTISADTSKNTAYLQMNSLRAEDTAVYYCARDPFGWAAHGVGLDYWGQGTLVTVSS
VL: DIQMTQSPSSLSASVGDRVTITCRASQSVSSAVAWYQQKPGKAPKLLIYSASSLYSGVPSRFSGSRSGTDFTLTISSLQPEDFATYYCQQSSYSLITFGQGTKVEIK
For the molecule B1, the Kd (usually the free concentration of one partner at which half of the binding sites on the other are occupied at equilibrium, for simple one-to-one binding) is 1.27 nM.
